Molecular target: GPI-anchored urokinase receptor (uPAR) on U937 cells (human (endogenous in U937)) (UniProt Q03405)
Assay: radioligand binding

UniProt Q03405, sequence (Q03405 23-305): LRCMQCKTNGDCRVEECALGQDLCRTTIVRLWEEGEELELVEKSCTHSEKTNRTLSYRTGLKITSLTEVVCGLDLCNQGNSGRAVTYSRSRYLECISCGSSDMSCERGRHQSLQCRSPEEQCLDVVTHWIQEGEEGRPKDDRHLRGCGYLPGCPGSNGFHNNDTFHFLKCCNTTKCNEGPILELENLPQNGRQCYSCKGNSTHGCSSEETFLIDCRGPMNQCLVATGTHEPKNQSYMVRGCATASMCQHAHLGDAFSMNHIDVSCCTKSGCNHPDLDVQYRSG

Row | Substance | IC50 [nM]
1 | histidine-tagged pro-uPA with Ser138 and Ser303 replaced by Glu (enzyme) | 0.4
2 | histidine-tagged pro-uPA with Ser138 replaced by Glu (enzyme) | 0.4
3 | histidine-tagged wild-type pro-uPA (enzyme) | 0.4
4 | human urinary uPA (enzyme) | 0.4

— paper PMC2139889
